Reference: patent US20250027068

B1: PRT-565 (protein)
chain: MANQEIRYSEATPSHITSVWTKGVTPPTQFIQNEDVLHAPYIANQGWYDITKTFNGKDDLLCGAATAGNMLHWWFDQNKEQIENYLKKHPEKQKINFNGEQMFDVKEAIDTKDSQTDSALFSYFKDKAFPYLSTKHLGVFPDHVIDMFINGYRLSLTNHGPTPVKRQTKDPRGGIFDAVFTRGDQSKLLTSRHDFKEKTLNEISQLIKQELTEGKALGLSHTYANVRINHVINLWGADFNAEGNLEAIYVTDSDSNASIGMKKYYVGVNSAGKVAISAKEIEGDNIGAQVLGLFTLSTGQDIWQQTNLEHHHHHH
B2: PRT-671 (protein)
chain: MQITTVWTKGVTPPTPEQFRNNNEDVFHAPYLPHQGWYDITKAFDGKDNLLCGAATAGNMLHWWFDQNKEEIEAYLKKYPEKQKIIFNNQELFDLRKAINTKDSQTNSQLFNYFRDKAFPNLSARQLGVMPDHVLDMFINGYYLNVFKTQSTDVNRPYQTRDKRGGIFDAVFNRGDQTTLLTERHDLYNKGLDDISTLIKQELSSGKALGLSHTYANVSISHVINLWGADFNAEGNLEAIYVTDSDDDASIGMKKYYVGKNASGHVRISAKKIEGENIGAQVLGLFTLSTGKDIWQKLSLEHHHHHH
B3: PRT-668 (protein)
chain: MQITSVWTKGVTPLTPEQFRYNNYDVFHAPYLAGQGWYDITKAFDGKDNLLCGAATAGNMLHWWFDQNKTEIEAYLSKYPEKQKIIFNNQELFDLRKAINTKDSQTNSELFNYFRDKAFPNLSARQLGVMPDLVLDMFINGYYLNVFKTQSTDVNRPYQDKDKRGGIFDAVFNRGDQTKLLTARHDLKNKGLNDISTLIKQELSSGRALALSHTTANVSISHVINLWGADFNAEGNLEAIYVTDSDDDSNIGMKKYKVGINASGHVAISAKKIEGENIGAQVLGLFTLSSGKDIWQKLSLEHHHHHH
B4: PRT-607 (protein)
chain: MQITSVWTYGVKPLTPEQFRYNNEDVIHAPYLEHQGWYDITKAFDGKDNLLCGAATAGNMLHWWFDQNKTEIEAYLSKHPEKQKIIFNNQELFDLKAAIDTKDSQTNSQLFNYFRDKAFPNLSARQLGVMPDLVLDMFINGYYLNVFKTQSTDVNRPYQDKDKRGGIFDAVFTRGDQTTLLTARHDLKNKGLNDISTIIKQELTEGRALALSHTYANVSISHVINLWGADFNAEGNLEAIYVTDSDANASIGMKKYFVGINAHGHVAISAKKIEGENIGAQVLGLFTLSSGKDIWQKLSLEHHHHHH
B5: PRT-666 (protein)
chain: MQITSVWTKGVTPPTPEQFRNNNEDVFHAPYLANQGWYDITKTFNGKDDLLCGAATAGNMLHWWFDQNKTEIEAYLKKHPEKQKIIFNNQELFDLKKAIDTKDSQTNSQLFNYFRDKAFPNLSARQLGVMPDLVLDMFINGYYLNVTKTQSTDVNRPYQDKDKRGGIFDAVFTRGDQTTLLTSRHDLKNKGLNEISDLIKQELTEGKALALSHTYANVSINHVINLWGADFNAEGNLEAIYVTDSDSNASIGMKKYFVGVNASGKVAISAKKIEGENIGAQVLGLFTLSSGKDIWQKLSLEHHHHHH

Target: pooled human IgG

| Protein | Enzyme Activity Endpoint Assay (purified): Fab′2 | Enzyme Activity Endpoint Assay (purified): Fc | Enzyme Activity Endpoint Assay (purified): IgG | Enzyme Activity Endpoint Assay (purified): scIgG |
| --- | --- | --- | --- | --- |
| B1 | 783 ng/µL | 471 ng/µL | 0 ng/µL | 0 ng/µL |
| B2 | 97 ng/µL | 294 ng/µL | 244 ng/µL | 864 ng/µL |
| B3 | 563 ng/µL | 0 ng/µL | 1070 ng/µL | 14 ng/µL |
| B4 | 779 ng/µL | 470 ng/µL | 0 ng/µL | 0 ng/µL |
| B5 | 897 ng/µL | 132 ng/µL | 66 ng/µL | 0 ng/µL |
